Results from publication PMC2719355 (The Journal of Biological Chemistry, 2009).

Target: the molecule itself
Assay: mass spectrometry

B1: recombinant full-length human butyrylcholinesterase, usual form (rBChE-U) (enzyme)
chain: EDDIIIATKNGKVRGMNLTVFGGTVTAFLGIPYAQPPLGRLRFKKPQSLTKWSDIWNATKYANSCCQNIDQSFPGFHGSEMWNPNTDLSEDCLYLNVWIPAPKPKNATVLIWIYGGGFQTGTSSLHVYDGKFLARVERVIVVSMNYRVGALGFLALPGNPEAPGNMGLFDQQLALQWVQKNIAAFGGNPKSVTLFGESAGAASVSLHLLSPGSHSLFTRAILQSGSFNAPWAVTSLYEARNRTLNLAKLTGCSRENETEIIKCLRNKDPQEILLNEAFVVPYGTPLSVNFGPTVDGDFLTDMPDILLELGQFKKTQILVGVNKDEGTAFLVYGAPGFSKDNNSIITRKEFQEGLKIFFPGVSEFGKESILFHYTDWVDDQRPENYREALGDVVGDYNFICPALEFTKKFSEWGNNAFFYYFEHRSSKLPWPEWMGVMHGYEIEFVFGLPLERRDNYTKAEEILSRSIVKRWANFAKYGNPNETQNNSTSWPVFKSTEQKYLTLNTESTRIMTKLRAQQCRFWTSFFPKVLEMTGNIDEAEWEWKAGFHRWNNYMMDWKNQFNDYTSKKESCVGL
- stoichiometry N: 2
